# In patent US20220411495A1, “POSITIVE ALLOSTERIC MODULATORS OF THE CALCIUM-SENSING RECEPTOR” (VIB VZW, priority 2019, published 2022):
# T1: rat CaSR (rCaSR) (Rattus norvegicus, UniProt P48442)
# T1 construct: mGlu5 signal peptide (N); expressed in transfected cells; host or cells: HEK293A, transient transfection
# T1 sequence (P48442 20-1079): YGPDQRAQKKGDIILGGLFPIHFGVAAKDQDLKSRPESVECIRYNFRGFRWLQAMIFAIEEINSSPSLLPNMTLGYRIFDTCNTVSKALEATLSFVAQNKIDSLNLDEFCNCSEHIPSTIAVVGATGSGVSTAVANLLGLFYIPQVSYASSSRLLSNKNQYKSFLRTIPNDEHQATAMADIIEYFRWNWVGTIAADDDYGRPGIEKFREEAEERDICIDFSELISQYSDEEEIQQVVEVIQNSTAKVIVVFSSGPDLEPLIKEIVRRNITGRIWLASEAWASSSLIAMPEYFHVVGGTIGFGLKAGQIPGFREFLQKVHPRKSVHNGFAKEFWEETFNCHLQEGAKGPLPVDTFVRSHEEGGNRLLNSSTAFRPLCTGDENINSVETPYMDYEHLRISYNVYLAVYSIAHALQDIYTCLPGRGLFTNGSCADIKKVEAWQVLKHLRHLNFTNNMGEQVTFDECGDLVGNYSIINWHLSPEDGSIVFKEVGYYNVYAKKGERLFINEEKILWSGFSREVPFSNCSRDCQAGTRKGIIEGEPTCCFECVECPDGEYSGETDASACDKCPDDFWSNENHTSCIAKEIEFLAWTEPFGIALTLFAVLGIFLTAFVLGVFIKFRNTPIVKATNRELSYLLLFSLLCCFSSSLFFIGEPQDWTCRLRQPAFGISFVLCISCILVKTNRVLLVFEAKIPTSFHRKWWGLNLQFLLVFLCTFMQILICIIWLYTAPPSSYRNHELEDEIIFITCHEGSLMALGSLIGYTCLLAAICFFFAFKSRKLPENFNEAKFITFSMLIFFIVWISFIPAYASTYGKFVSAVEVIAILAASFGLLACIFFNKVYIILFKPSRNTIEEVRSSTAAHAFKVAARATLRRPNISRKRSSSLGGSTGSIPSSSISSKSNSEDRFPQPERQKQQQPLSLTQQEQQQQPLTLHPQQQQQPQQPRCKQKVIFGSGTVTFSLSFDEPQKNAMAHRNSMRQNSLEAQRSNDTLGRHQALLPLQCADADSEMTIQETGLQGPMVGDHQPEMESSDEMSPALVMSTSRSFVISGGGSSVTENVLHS
# Molecular target: T1, rat CaSR (rCaSR)
# Experiment: IP1 accumulation assay, HEK293A cells transiently transfected with HA-rCaSR WT
# Assay type: cell-based
# Conditions: IP1 accumulation at EC20 Ca2+
# Source text: The rat and human CaSR orthologs have an overall sequence identity of 93.6% and an ECD sequence identity of 95.7% (SEQ ID NO:1 aligned with SEQ ID NO:2). Thus, differences in CaSR nanobody activity are unlikely to be observed. […] Besides CaSR Nb36, similar results were obtained among the nanobodies that originate from the same family (FIGS. 7E and 7F). For Nb36, the increase in maximum response relative to Nb4 and Nb11 previously observed with human CaSR was absent (FIGS. 7C and 7F). The binding site of these nanobodies still remains to be found. The difference in CaSR Nb36 maximum response and the high interspecies sequence identity could bring us one step closer to finding the binding site for CaSR Nb4, Nb11 and Nb36.
# All cell lines utilized in this study were grown at 37° C. and 5% CO2. The HEK293A (RRID: CVCL_6910) and stable Flp-In HEK293 cells were cultured in Dulbecco's Modified Eagle Medium (DMEM, #31966021) supplemented with 10% dialyzed Fetal Bovine Serum (dFBS) and 1% 10,000 units/mL penicillin and 10,000 μg/mL streptomycin mixture (pen/strep). The stable Flp-In CHO cells were cultured in F-12K medium (#21127022) supplemented with 10% dFBS and 1% pen/strep. Additionally, the stable Flp-In HEK293 and Flp-In CHO cell lines were cultured in the presence of respectively 200 and 500 μg/mL hygromycin B. For pharmacological characterization, Flp-In HEK293 HA-hCaSR WT cells were seeded in poly-D-lysine-coated clear 96 well tissue culture plates (Corning, Corning, N.Y., USA) at a density of 50,000 cells/well 18 h prior to assay. Experiments with HA-rCaSR WT and HA-hCaSR S170A required transient transfection of HEK293A cells 24 h prior to assay. DNA construct and Lipofectamine 2000 were diluted in Opti-MEM and mixed together after 5 minutes incubation at room temperature. For HA-rCaSR WT, 30 ng/well rCaSR DNA diluted in 25 μL/well Opti-MEM was mixed with 0.25 μL/well Lipofectamine 2000 in 25 μL/well Opti-MEM. For HA-hCaSR S170A, 40 ng/well […] DNA diluted in 25 μL/well Opti-MEM was mixed with 0.25 μL/well Lipofectamine 2000 in 25 μL/well Opti-MEM. The DNA:Lipofectamine 2000 mixtures were incubated 20 minutes at room temperature after which 50 μL/well was added to a poly-D-lysine-coated clear 96 well tissue culture plate. Next, 100 μL/well of a 400,000 cells/mL HEK293A cell solution prepared in culture media was added and the plate was placed at 37° C. and 5% CO2 (final cell density 40,000 cells/well).
# Inositol monophosphate (IP1) accumulation was measured using the commercially available HTRF® IP1 accumulation kit (Cisbio Bioassays, Codolet, France) and an EnVision multimode plate reader (PerkinElmer, Waltham, Mass., USA). Unless stated otherwise, the cells were washed once with 100 μL/well assay buffer and stimulated for 30 minutes at 37° C. with 50 μL/well ligand(s) diluted in assay buffer supplemented with 20 mM LiCl. Following stimulation, the cells were washed once with 100 μL/well and lysed for 30 minutes at room temperature with 30 μL/well lysis buffer provided with the kit. The lysed cells were diluted 1:2 with assay buffer after which 10 μL/well was pipetted to a white 384-well OptiPlate (PerkinElmer, Waltham, Mass., USA). Next, 10 μL of a detection solution consisting of 2.5% IP1-d2 conjugate and 2.5% anti-IP1 antibody diluted in assay buffer was added to each well. Fluorophore emissions were measured after the plate was stored in the dark for 1 h. The 615/665 nm emission ratios measured upon excitation at 340 nm were converted to IP1 concentrations with an IP1 standard curve according to the manufacturer's instructions.
# [1] = three independent experiments in triplicate
Molecule,"Max. response (fold over basal ± S.E.M.), rat ortholog [fold over basal]","EC50 (three independent experiments in triplicate, read-out: Potency (pEC50 ± S.E.M.), rat ortholog (converted)) [nM]","Potency (pEC50 ± S.E.M.), rat ortholog [1]"
"COc1cccc([C@@H](C)NCCCc2ccccc2Cl)c1 [NPS R-568, reference compound]",3.43 ± 0.76,257,
"Nb2: llama-derived CaSR-specific nanobody acting as PAM, SEQ ID NO:9 (protein, CaSR Nb2) VHH: QVQLVESGGGLVQAGSSLRLSCAASGRTFSNYRMAWFRQAPGKEREFVAVISRGGGGADYADSVKGRFTISRDNVKNTVSLQMNSLKPEDTAVYFCAARISGFSYYTSVDRYDYWGQGTQVTVSS",3.01 ± 0.51,,6.46 ± 0.07
"Nb5: llama-derived CaSR-specific nanobody, weakest PAM, SEQ ID NO:8 (protein, CaSR Nb5) VHH: QVQLVESGGRLVQDGGSLRLSCAASGLTFSDYSMGWFRQVPGKEREFVAVIRRSNDSTYYADFVKGRFTISRDNAKNTVYLQMNSLQPEDTAVYSCAADRGGVGLTSAQTYAYWGQGTQVTVSS",1.28 ± 0.12,,
"Nb10: llama-derived CaSR-specific nanobody acting as PAM, SEQ ID NO:3 (protein, CaSR Nb10) VHH: QVQLVESGGGLVQPGDSLRVSCAASGGSFRSYAMAWFRQAPGKEREFVAAMSGTYGSTIYSDSMKGRFTISRDNAKKMVYLRMNSLRPEDTAVYYCAGYYSGAYYGTPKTDYTEYDSWGQGTQVTVSS",2.89 ± 0.13,,6.29 ± 0.02
"Nb37: llama-derived CaSR-specific nanobody acting as PAM, SEQ ID NO:4 (protein, CaSR Nb37) VHH: QVQLVESGGGLVQPGDSLRVSCAASGGSFRSYAMAWFRRAPGKEREFVAAMSGTYGSTIYADSMKGRFTISRDNAKKMVYLRMNSLRAEDTAVYYCAGYYSGAYYGTPKTDYTEYDSWGQGTQVTVSS",3.07 ± 0.39,,6.00 ± 0.28
"Nb15: llama-derived CaSR-specific nanobody acting as PAM, SEQ ID NO:10 (protein, CaSR Nb15) VHH: QVQLVESGGGLVQAGGSLRLSCAASGRTFNNYHMAWFRQAPGKEREFAAAISRRAGTTYYADSVKGRFTISRDNAKNTVYLQMNSLKPEDTAVYYCAADPDTYGVSYLARKYDYWGQGTQVTVSS",2.88 ± 0.13,,6.31 ± 0.07
"Nb4: llama-derived CaSR-specific nanobody acting as PAM, SEQ ID NO:5 (protein, CaSR Nb4) VHH: QVQLVESGGGLVQAGGSLRLSCAASGRTFSTYRMGWFRQGLGKEREFVAAITANGVRTFYTDSVKGRFTISRDNAKNTLYLQMNSLQPDDTAVYLCAARRKGIFTVQQAQDITDWDYWGQGTQVTVSS",3.03 ± 0.63,,7.09 ± 0.09
"Nb11: llama-derived CaSR-specific nanobody acting as PAM, SEQ ID NO:6 (protein, CaSR Nb11) VHH: QVQLVESGGGLVQAGGSLRLSCAASGRTFSTYRMGWFRQGPGKEREFVAAITATGVKTYYTDSVKGRFTISRDNAKNTVYLQMNSVQPEDTAVYSCAARIKAIFTAQQAATITDYDYWGQGTQVTVSS",2.90 ± 0.23,,6.24 ± 0.11
"Nb36: llama-derived CaSR-specific nanobody acting as PAM, SEQ ID NO:7 (protein, CaSR Nb36) VHH: QVQLVESGGGLVQAGESLRLSCAASGRTFSSYRMGWFRQGPGKEREFVAAITATGVRTYYADSVKGRFTISRDNAKNTVYLQMNSLQPDDTAVYLCAARRKAIFSVQQALTITDYDDWGQGTQVTVSS",3.10 ± 0.12,,6.78 ± 0.03
